Reference: patent publication US20080214408A1

What was measured:
[1] = molecular target: GFP-Tus-His6 fusion protein (E. coli) (UniProt P16525); experiment: protein microarray, fluorescence; fusion protein made in situ and held on plasmid with wild-type Ter site, detected with Cy3-labeled anti-his antibody
[2] = molecular target: GFP-Tus-His6 fusion protein (E. coli) (UniProt P16525); experiment: protein microarray, fluorescence; fusion protein made in situ and held on plasmid with mutant Ter site (SEQ ID NO: 12), detected with Cy5-labeled anti-his antibody
[3] = molecular target: GFP-Tus-His6 fusion protein (E. coli) (UniProt P16525); experiment: protein microarray, fluorescence; fusion protein made in situ and held on plasmid with wild-type Ter site, detected with Cy5-labeled anti-his antibody
[4] = molecular target: GFP-Tus-His6 fusion protein (E. coli) (UniProt P16525); experiment: protein microarray, fluorescence; fusion protein made in situ and held on plasmid with mutant Ter site (SEQ ID NO: 12), detected with Cy3-labeled anti-his antibody

Cy3 Signal Intensity (Background subtracted) (arbitrary units) [1]: 20600
Cy5 Signal Intensity (Background subtracted) (arbitrary units) [2]: 4740
Cy5 Signal Intensity (Background subtracted) (arbitrary units) [3]: 14000
Cy3 Signal Intensity (Background subtracted) (arbitrary units) [4]: 10900
Substance: monoclonal antibody to the poly-his tag (Sigma-Aldrich), labeled with Cy3 or Cy5
